The chains are these.
B1: human IL-25 expressed with a C-terminal myc-myc-hexahistidine tag (ligand)
chain: YSHWPSCCPSKGQDTSEELLRWSTVPVPPLEPARPNRHPESCRASEDGPLNSRAISPWRYELDRDLNRLPQDLYHARCLCPHCVSLQTGSHMDPRGNSELLYHNQTVFYRRPCHGEKGTHKGYCLERRLYRVSLACVCVRPRVMGEQKLISEEDLGGEQKLISEEDLHHHHHH
B3: monkey IL-25 expressed with a C-terminal myc-myc-hexahistidine tag (ligand)
chain: YSHWPSCCPSKGYPSEELLRWSTVPVPPLKPASLDFHSVSCRASEDGPLNSRAISPWRYELDRDLNRLPQDLYHARCLCPHCVSLQTGSHMDPRGNSELLYHNQTVFYRRPCHGKKGNHKGYCLERRLYRVSLACVCVRPRVMGEQKLISEEDLGGEQKLISEEDLHHHHHH
B4: mouse IL-25 expressed with a C-terminal myc-myc-hexahistidine tag (ligand)
chain: VSLRIQEGCSHLPSCCPSKEQEPPEEWLKWSSASVSPPEPLSHTHHAESCRASKDGPLNSRAISPWSYELDRDLNRVPQDLYHARCLCPHCVSLQTGSHMDPLGNSVPLYHNQTVFYRRPCHGEEGTHRRYCLERRLYRVSLACVCVRPRVMAEQKLISEEDLGGEQKLISEEDLHHHHHH

Experiment [1] concerns the target T1, human IL-25 receptor (IL-17RA/IL-17RB) on HEK293/NFκB-luc/hIL17RA/hIL17RB/hAct1 cells (human, UniProt Q96F46 33-866; Q9NRM6 18-502).
T1 sequence (looked up) 1: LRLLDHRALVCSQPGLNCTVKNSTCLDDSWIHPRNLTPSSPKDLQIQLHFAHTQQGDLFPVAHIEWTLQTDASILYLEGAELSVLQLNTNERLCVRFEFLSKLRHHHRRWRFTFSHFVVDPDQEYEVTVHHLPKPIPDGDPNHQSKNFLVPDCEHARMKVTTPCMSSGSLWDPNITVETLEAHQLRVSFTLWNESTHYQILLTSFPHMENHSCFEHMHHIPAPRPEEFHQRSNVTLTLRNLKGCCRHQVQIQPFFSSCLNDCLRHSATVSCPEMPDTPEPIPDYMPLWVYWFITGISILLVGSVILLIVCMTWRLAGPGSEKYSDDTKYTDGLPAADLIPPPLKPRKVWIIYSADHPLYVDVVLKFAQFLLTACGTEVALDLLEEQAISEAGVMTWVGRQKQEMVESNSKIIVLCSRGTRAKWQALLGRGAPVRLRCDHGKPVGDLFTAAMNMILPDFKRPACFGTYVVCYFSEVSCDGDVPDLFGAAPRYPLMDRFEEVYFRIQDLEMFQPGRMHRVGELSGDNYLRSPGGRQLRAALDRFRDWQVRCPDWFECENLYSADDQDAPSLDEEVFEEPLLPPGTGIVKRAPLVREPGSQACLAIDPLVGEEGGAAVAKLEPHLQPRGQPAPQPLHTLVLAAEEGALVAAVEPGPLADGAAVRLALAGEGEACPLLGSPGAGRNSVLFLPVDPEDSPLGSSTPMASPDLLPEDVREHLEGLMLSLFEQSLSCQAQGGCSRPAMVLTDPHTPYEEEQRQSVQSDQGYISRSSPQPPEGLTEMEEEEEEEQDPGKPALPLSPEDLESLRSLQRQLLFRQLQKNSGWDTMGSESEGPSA
T1 sequence (looked up) 2: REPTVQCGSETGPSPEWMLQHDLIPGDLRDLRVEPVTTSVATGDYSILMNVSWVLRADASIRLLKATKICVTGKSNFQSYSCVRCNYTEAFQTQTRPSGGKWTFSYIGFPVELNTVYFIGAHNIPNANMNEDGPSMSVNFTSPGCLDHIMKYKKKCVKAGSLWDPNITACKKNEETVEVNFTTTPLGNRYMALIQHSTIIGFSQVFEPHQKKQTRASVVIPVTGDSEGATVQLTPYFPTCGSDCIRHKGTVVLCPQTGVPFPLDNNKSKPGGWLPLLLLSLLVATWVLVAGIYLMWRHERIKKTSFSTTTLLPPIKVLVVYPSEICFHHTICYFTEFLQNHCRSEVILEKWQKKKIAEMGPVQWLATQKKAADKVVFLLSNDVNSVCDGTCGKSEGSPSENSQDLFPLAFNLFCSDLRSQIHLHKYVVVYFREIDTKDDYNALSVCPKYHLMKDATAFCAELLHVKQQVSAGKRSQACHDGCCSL
Description: cell-based or functional assay.

Experiment [2] addresses B1. The experiment in a line: cell-based or functional assay.
For experiment [3], the target named is B3. Description: cell-based or functional assay.
Experiment [4] addresses B4. The experiment in a line: cell-based or functional assay.
In experiment [5] the target is B1. The experiment in a line: cell-based or functional assay.
Experiment [6] addresses B3. The experiment in a line: SPR Biacore, antibody captured, 37C.
The target in experiment [7] is B4. The experiment in a line: SPR Biacore, antibody captured, 25C. On the technique in general: SPR reads the build-up and loss of mass on a sensor chip optically.
Experiment [8] has as its target B4. The experiment in a line: SPR Biacore, antibody captured, 37C.
The target of experiment [9] is T2, rat IL-25 expressed with a C-terminal myc-myc-hexahistidine tag (rat).
T2 construct: also called Rat IL-25-MMH
T2 chain: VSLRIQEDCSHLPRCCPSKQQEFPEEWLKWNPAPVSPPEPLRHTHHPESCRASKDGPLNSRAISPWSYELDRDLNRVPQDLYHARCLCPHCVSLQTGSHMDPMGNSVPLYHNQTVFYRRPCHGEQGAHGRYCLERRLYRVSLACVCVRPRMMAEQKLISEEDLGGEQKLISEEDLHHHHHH
The experiment in a line: SPR Biacore, antibody captured, 25C.
Description: Equilibrium dissociation constants (KD values) for IL-25 binding to purified anti-IL-25 antibodies were determined using a real-time surface plasmon resonance biosensor assay on a Biacore 4000 instrument (GE Healthcare). […] All the IL-25 reagents were expressed with a C-terminal myc-myc-hexahistidine tag (referred to herein as “IL-25-MMH”). […] Kinetic association (kₐ) and dissociation (kd) rate constants were determined by fitting the real-time sensorgrams to a 1:1 binding model using Scrubber 2.0c curve fitting software.

For experiment [10], the target named is T2, rat IL-25 expressed with a C-terminal …. The experiment in a line: SPR Biacore, antibody captured, 37C.
Experiment [11] concerns the target B1. The experiment in a line: BLI Octet, hIL-25-MMH captured on anti-Penta-His sensor, 25C. Background: Biolayer interferometry detects binding as a change in optical thickness at a sensor tip.
Description: Binding competition between anti-IL-25 monoclonal antibodies was determined using a real time, label-free bio-layer interferometry assay on an Octet QK384 biosensor (Pall ForteBio Corp.).
The biosensors were washed in HBST kinetics buffer in between every step of the experiment. The real-time binding response was monitored during the course of the experiment and the binding response at the end of every step was recorded.
Experiment [12] concerns the target B1. The experiment in a line: competition ELISA, 2 nM hIL-25-MMH binding to coated hIL-17RB-hFc. (An ELISA detects its analyte on a solid surface through an enzyme-linked reagent.)
Description: (§1) Data analysis was performed using a sigmoidal dose-response model within Prism™ software (GraphPad). […] The absorbance values of the wells containing the highest concentration for each antibody were used to determine the percent maximum blockade.
Experiment [13] addresses B1. Description: competition ELISA, 2 nM hIL-25-MMH binding to coated hIL-17RB-hFc; (*) below theoretical bottom of the assay.
Description: as §1

The source of these data is US20160083466A1 (Regeneron, published 2016).

For orientation: Kd means a measure of binding affinity in units of concentration. As a reminder, the koff is the rate constant with which the complex falls apart. One may read the kon as a measure of how fast the partners come together. Broadly, the t½ is the time needed for the level to fall by half in the phase considered. By IC50 is commonly meant the concentration that gives 50% inhibition.
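Throughout, for 100 nM Monkey IL-25-MMH Bound (RU): biacore 4000 surface plasmon resonance biosensor measuring binding of IL-25-MMH to purified anti-IL-25 antibodies.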

Take B1: in [1], the “EC50, NFκB-luciferase activation of HEK293/NFκB-luc/hIL17RA/hIL17RB/hAct1 cells (first assay day)” value worked out at 2.9 pM and the “EC50, NFκB-luciferase activation of HEK293/NFκB-luc/hIL17RA/hIL17RB/hAct1 cells (second assay day)” value was 16 pM.

B2: H4H10871P (antibody, human IgG4, V domains shown)
VH: QVQLVQSGAEVMKPGASVKVSCKSSDFAFTTYGISWVRQAPGQGLEWMGWISAYNGNTNYEQRFQGRITMTTDTSTTTVYMELRSLRSDDTAVYYCARDPDYCSSNTCSDAFDLWGQGTMVTVSS
VL: DIQMTQSPSSLSASVRDRVTITCRASQGITNYLAWYQQKPGKVPKVLIYAASTLQSGVPSRFSGSGSGTEFTLAISSLQPEDVATYFCQQYGSAPWTFGQGTKVEIK
notes: H4H prefix = human IgG4 Fc
B2: the “IC50, luciferase reporter cells, 5 pM hIL-25-MMH” value in experiment [2] amounted to 3.2e-10 M. Further, in experiment [3], the “IC50, luciferase reporter cells, 12 pM MfIL-25-MMH” value turned out to be 8.8e-11 M. Further, the “IC50, luciferase reporter cells, 10 pM mIL-25-MMH” value in [4] turned out to be 6.7e-10 M. In experiment [5], the “IC50 values of antibodies for blocking IL-5 release from Donor #727058-059” value is 118 pM and the “IC50 values of antibodies for blocking IL-5 release from Donor #727060” value was 636 pM. Further, in experiment [6], the “100 nM Monkey IL-25-MMH Bound (RU)” value is 54 RU, the Kd amounted to 0.0546 nM, the off-rate (koff) came out at 7.4e-05 s⁻¹ and the kon turned out to be 1.35e+06 M⁻¹ s⁻¹. Besides, the t½ in experiment [6] was 156 min. In [7], the “100 nM Mouse IL-25-MMH Bound (RU)” value turned out to be 30 RU, binding was put at a Kd of 0.918 nM, the koff was 0.000111 s⁻¹ and the kon turned out to be 121000 M⁻¹ s⁻¹. In addition, the t½ in experiment [7] turned out to be 104 min. Moreover, in experiment [8], the “100 nM Mouse IL-25-MMH Bound (RU)” value stood at 41 RU; the affinity, expressed as Kd, was 0.258 nM; the koff is 8.29e-05 s⁻¹; the on-rate (kon) was 322000 M⁻¹ s⁻¹. In experiment [8], this molecule gave a t½ of 139 min. Further, in experiment [9], the “100 nM Rat IL-25-MMH Bound (RU)” value was determined as 37 RU, the dissociation constant (Kd) worked out at 0.132 nM, the off-rate constant (koff) amounted to 7.23e-05 s⁻¹ and the on-rate constant (kon) amounted to 548000 M⁻¹ s⁻¹. This molecule gave a t½ in experiment [9] of 160 min. In experiment [10], the “100 nM Rat IL-25-MMH Bound (RU)” value was determined as 45 RU, the dissociation constant Kd was determined as 0.0602 nM, the dissociation rate constant (koff) was 5.64e-05 s⁻¹ and the kon is 937000 M⁻¹ s⁻¹. The molecule further yielded a t½ in experiment [10] of 205 min. The “50 ug/mL mAb-1 Binding (nm)” value in experiment [11] was found to be 1.12 nm. Also, the “% Maximum blocking of 200 nM antibody” value in experiment [12] stood at 92%. In experiment [13], this molecule came in with an IC50 of 0.71 nM.

Take B3: the “EC50, NFκB-luciferase activation of HEK293/NFκB-luc/hIL17RA/hIL17RB/hAct1 cells” value in experiment [1] came out at 19 pM.

B4: in [1], the “EC50, NFκB-luciferase activation of HEK293/NFκB-luc/hIL17RA/hIL17RB/hAct1 cells” value was 8.4 pM.

B5: H4H10876P (antibody, human IgG4, V domains shown)
VH: QVQLVQSGAEVKKPGASVKVSCKASEYTFSNYGISWVRQAPGQGLEWLGWIGAYSGFTKYAQKVQDRITMTTDASTTTAYMELRNLRSDDTAVYYCARVGTGTDSYFDFWGQGTLVTVSS
VL: DIQMTQSPSSLSASVGDRVTITCRASQNINSHLNWYQQKPGKAPKLLIYTASSLQSGVPLRFSGSGSGTDFTLTISSLQPEDFGIYICQQTYITPLTFGGGTKVEIK
notes: H4H prefix = human IgG4 Fc
On to B5, for which the “IC50, luciferase reporter cells, 5 pM hIL-25-MMH” value in experiment [2] worked out at 4.6e-10 M. Further, the “IC50, luciferase reporter cells, 12 pM MfIL-25-MMH” value in experiment [3] stood at 2.1e-10 M. For the same molecule, the “IC50, luciferase reporter cells, 10 pM mIL-25-MMH” value in experiment [4] was determined as 8.8e-10 M. In addition, in [5], the “IC50 values of antibodies for blocking IL-5 release from Donor #727058-059” value was 172 pM and the “IC50 values of antibodies for blocking IL-5 release from Donor #727060” value is 130 pM. In addition, in [6], the “100 nM Monkey IL-25-MMH Bound (RU)” value is 64 RU, the equilibrium dissociation constant (Kd) is 0.104 nM, the off-rate (koff) was 5.45e-05 s⁻¹ and the kon came out at 524000 M⁻¹ s⁻¹. For the same molecule, the t½ in [6] was 212 min. In addition, in experiment [7], the “100 nM Mouse IL-25-MMH Bound (RU)” value worked out at 40 RU, binding was put at a Kd of 0.57 nM, the koff was 9.89e-05 s⁻¹ and the on-rate (kon) amounted to 174000 M⁻¹ s⁻¹. In [7], the t½ stood at 117 min. Further, in [8], the “100 nM Mouse IL-25-MMH Bound (RU)” value stood at 51 RU, binding was characterised by a dissociation constant (Kd) of 0.243 nM, the dissociation rate constant (koff) was 8.97e-05 s⁻¹ and the kon is 369000 M⁻¹ s⁻¹. For the same molecule, the t½ in [8] worked out at 129 min. Besides, in [9], the “100 nM Rat IL-25-MMH Bound (RU)” value is 45 RU; the affinity, expressed as Kd, was 0.341 nM; the koff worked out at 8.81e-05 s⁻¹; the kon came to 259000 M⁻¹ s⁻¹. Further, the t½ in [9] is 131 min. For the same molecule, in experiment [10], the “100 nM Rat IL-25-MMH Bound (RU)” value was 53 RU, binding was characterised by a dissociation constant (Kd) of 0.238 nM, the dissociation rate constant (koff) came out at 0.000107 s⁻¹ and the on-rate (kon) worked out at 450000 M⁻¹ s⁻¹. This molecule yielded a t½ in experiment [10] of 108 min. Moreover, in [11], the “50 ug/mL mAb-1 Binding (nm)” value was 1.07 nm. In addition, the “% Maximum blocking of 200 nM antibody” value in experiment [12] was found to be 89%. Besides, the IC50 in experiment [13] worked out at 0.65 nM.
